Reference: the DeepSol protein solubility set

Assay: soluble on expression in E. coli; label from the status in PepcDB or PDB records

Row | Sequence | soluble on expression in E. coli
1 | MATTIPGSLVNKTKKFFMGMPAPTGYVPGVGRGATGFTTRSDIGPARDPTELPEAGPVGPSPQGASSSSAPPAKRARDDDGDGEDLNEANYDEFSGYSGSLFSKDPYDQEDEDADRIYNEVDDRLDERHKERREKKYKELVELFHKDRPKIQQGFQDLKRQLAEVTEDEWQAIPEVGDMRNKAKRNARAEKFTPVPDSIIAMNMNYGQMSHSIDSGNGLTTPFASGFMSTLGGGGGAAAAGAKSGIMTPGWKSDIPSSGTSTDLDLVKIGQARNKIMDMQLTQVSDSVTGQTVVDPKGYLTDMQSIIPQMGGDLQDIKKARMLLKSVRETNPRHPPAWVASAVLEEQAGKLQTARNFIMEGCEKIKNSEELWLHAIRLHPPELGRSIVANAVRSCPHSVRLWCKASDLEQDLKDKKKVLRKALEQIPSSVKLWKAAVELEDPEDARILLTRAVECCSSSTEMWLALARLETYENARKVLNKAREHIPTDRHIWLSAARLEETRGQKDMVDKIVAKAMSSLKVNQVEINRDQWLKDAVDAEMAKCPITCQAIIRNVIGLGVEDEDKRTTWLADAENFEKEEAFTCVRTVYAIALKEFSRKRSIWDAAIHFEREHGSLDEHEAILLKACETVPEVEDYWLMLAKLRFVNKRVGEARDTLMSAFEKHGHQSEKIWLAATKIEIETDQFDTARGLFGKARAKAPSARVWMKNAHFEWCLGNVEEAKRLCEECIQKYDDFHKIYLVLGQVLEQMNDVHGARLAYTQGIRKCPGVIPLWILLVRLEEKAGQIVKARVDLEKARLRNPKNDDLWLESVRFEQRVGCPEMAKERMSRALQECEGSGKLWAEAIWMEGPHGRRAKSIDALKKCEHNPHVLIAAARLFWSERKIKKAREWFVRAVNLDPDNGDAFANFLAFEQIHGKEEDRKSVFKKCVTSEPRYGDLWQSVSKDPINWRRTTEEILQLATQKIKVPT | not soluble
2 | MGSDKIHHHHHHMELRGIWLTNVDSKILHSRDKIAEAMNFLVDTGFNVIFPVVWNKAFTLYPSQLMETTFGQEIDPLYKGRDPLAEVIIEAQRVGLKVIPWFEYGFVSSYKQNGGLILSKKPEWIARERKGNLLVKNGFEWMNALDEEVQNFLIDLVLEVVRNYDIDGIQGDDRMPAFPSEGGYDAKTVGRYRQQFSCHPPQNNKDHKWLQWRANILTDFLARLYGKVKAVKPNILVSMAPSFYKWGFNEYLQDYPTWINREVVDIVHPQLYRRDFSSYKSLVEQLVKQQFIATHLNKIFPGILIKIGSYRISMDYLLEAIAYNRSVGINGEVLFFYEGLRENNDVLAKALRKYVYN | not soluble
3 | MGSDKIHHHHHHMDAMPSTTAITVSQLSRLVGLPGVPVIIDVRIDEDFDADPRLLPASIRRDFKTVSTWAPDFAGKPVVVVCQKGLKLSQGVAAWLRHEGIPAESLEGGFEAWREADGLLVSTDKLPPRDEKGRTVWVTRSRPKVDRIACPWLIRRFVDPRAVFLFVEAAEVPAVADRFQAVPFDIDNVFWSHRGERCTFDTMIEEFGLESTALDRLAAIVRAADTARLDLVPQAAGFLAASLGLSRMFRDDLEQLEAGMLLYDAFFRWCRDATEETHNWPSAGKPS | not soluble
4 | MSLNFTLHTLNGIKLWLVLLLLSGAINVCRADSPRQTINFNRGWKYCQGDFDHAARPGFDDSEWEKIGLPHSFSTPYFMSKDFYVGYGWYRKAFPVKKEILGKKSFLEFDGVFQEAEIFVNGHLAGTHKGGYTGFSIDISAYLKEGKNLVAVRVNNCWRPDLAPRAGEHVFSGGIYRNVRLVIKPPTYIDWYGTWITTPDLAENKGKSGSVHIRTDVCNASGKTDTYRLLTTVVDAQGKEVSSVSTSQVLPDNATYTFEQQTKEIQAPQLWHPNHPALYKVISSLYHGQELIDRYETAFGFRWFEWTADRGFFLNGEHLYFKGANVHQDHAGWGDAVTETGMRRDIRLVKEAGFDLIRGSHYPHSPAFSQACDEIGMLFWAENAFWGIGGHKGDGYWNASAYPVNESDRAEFENSVKAQLKELIRIHRNHPSIIVWSMSNEPFFTAPETINPMRKLLEETVKLSKQLDPTRPAAVGGAQRPLGEKRIDKLGDIAGYNGDGSYIPEFQQPGMPTVVSEYGSTTADRPGEYDPGWGDLAKNNAQNGFPWRSGQAIWCAFDHGSIAGSALGKMGIIDYFRIPKRAWYWYRNAYKGITPPEWPQEGTPARISLVADRTDNIKADGTDDVMLSITILDASGKPVSNSPAVKLDILSGPGEFPTGTSILFEKESDIRILDGKAAIEFRSYYAGETVIRATSPGLEPAEVKIRFTGSTPYTEAFKVKERPYTRFETPTKTDNLQTFGPNNPTFCSSSANGHSSAFAADGDESTYWQASENDPERSWTLDTEKGLSIRHIRIAFPDLTPYQYKVEVSMDREHWSLIPDQTNNKQNENIRMIQVVPGIQGRFVRISFTGEKAAITDVQVIGTVIDEGHHHHHH | soluble
5 | MAHHHHHHMLRLLPLRLASKVTAGNAKNQAGHPRRKAKLFHVIPGTPVTPMEKLKEQRRRYGQDRHSRLPEYRPGKNVRLDPNTFTLYATTKGVMTIRESRINPKYKWLEVEPDIQKVYRSSQMRRALAARGMTSQMVEKNEHYRSEMDLLLEPHWRQRVMRVPKATERFKDPNLFVRGVITELTPMDRYCYE | not soluble
6 | GPGSMRNLVREGITPPVLVFVQSVERSKELYEEIRMEGLHMAIMHAKMTVEQREETVLQFRLGKIWVLVTTELLARGIDFKNVGTVINFDFPATVDSYIHRVGRTGRAGKEGTAITFFTEDDKERLPPIAKVMQDSGNAVEDWILGIKVDRSTRRRLERTTPQRTIVSTRKRMLVAQQRVQRQYRRLEAEKAAKQASKRSKGCGDCDRDDGDDSTDDA | soluble
7 | MDEKTKKAEEMALSLTRAVAGGDEQVAMKCAIWLAEQRVPLSVQLKPEVSPTQDIRLWVSVEDAQMHTVTIWLTVRPDMTVASLKDMVFLDYGFPPVLQQWVIGQRLARDQETLHSHGVRQNGDSAYLYLLSARNTSLNPQELQRERQLRMLEDLGFKDLTLQPRGPLEPGPPKPGVPQEPGRGQPDAVPEPPPVGWQCPGCTFINKPTRPGCEMCCRARPEAYQVPASYQPDEEERARLAGEEEALRQYQQRKQQQQEGNYLQHVQLDQRSLVLNTEPAECPVCYSVLAPGEAVVLRECLHTFCRECLQGTIRNSQEAEVSCPFIDNTYSCSGKLLEREIKALLTPEDYQRFLDLGISIAENRSAFSYHCKTPDCKGWCFFEDDVNEFTCPVCFHVNCLLCKAIHEQMNCKEYQEDLALRAQNDVAARQTTEMLKVMLQQGEAMRCPQCQIVVQKKDGCDWIRCTVCHTEICWVTKGPRWGPGGPGDTSGGCRCRVNGIPCHPSCQNCH | soluble
8 | MAERGGDGGESERFNPGELRMAQQQALRFRGPAPPPNAVMRGPPPLMRPPPPFGMMRGPPPPPRPPFGRPPFDPNMPPMPPPGGIPPPMGPPHLQRPPFMPPPMSSMPPPPGMMFPPGMPPVTAPGTPALPPTEEIWVENKTPDGKVYYYNARTRESAWTKPDGVKVIQQSELTPMLAAQAQVQAQAQAQAQAQAQAQAQAQAQAQAQAQAQAQAQAQAQAQAQAQAQAQAQAQAQAQAQAQVQAQVQAQVQAQAVGASTPTTSSPAPAVSTSTSSSTPSSTTSTTTTATSVAQTVSTPTTQDQTPSSAVSVATPTVSVSTPAPTATPVQTVPQPHPQTLPPAVPHSVPQPTTAIPAFPPVMVPPFRVPLPGMPIPLPGVLPGMAPPIVPMIHPQVAIAASPATLAGATAVSEWTEYKTADGKTYYYNNRTLESTWEKPQELKEKEKLEEKIKEPIKEPSEEPLPMETEEEDPKEEPIKEIKEEPKEEEMTEEEKAAQKAKPVATAPIPGTPWCVVWTGDERVFFYNPTTRLSMWDRPDDLIGRADVDKIIQEPPHKKGMEELKKLRHPTPTMLSIQKWQFSMSAIKEEQELMEEINEDEPVKAKKRKRDDNKDIDSEKEAAMEAEIKAARERAIVPLEARMKQFKDMLLERGVSAFSTWEKELHKIVFDPRYLLLNPKERKQVFDQYVKTRAEEERREKKNKIMQAKEDFKKMMEEAKFNPRATFSEFAAKHAKDSRFKAIEKMKDREALFNEFVAAARKKEKEDSKTRGEKIKSDFFELLSNHHLDSQSRWSKVKDKVESDPRYKAVDSSSMREDLFKQYIEKIAKNLDSEKEKELERQARIEASLREREREVQKARSEQTKEIDREREQHKREEAIQNFKALLSDMVRSSDVSWSDTRRTLRKDHRWESGSLLEREEKEKLFNEHIEALTKKKREHFRQLLDETSAITLTSTWKEVKKIIKEDPRCIKFSSSDRKKQREFEEYIRDKYITAKADFRTLLKETKFITYRSKKLIQESDQHLKDVEKILQNDKRYLVLDCVPEERRKLIVAYVDDLDRRGPPPPPTASEPTRRSTK | soluble
